From the DeepSol protein solubility set come the findings set out here.

The data set is described as follows: soluble on expression in E. coli; label from the status in PepcDB or PDB records.
With “MSLATLAELYEFLETKQDDSHLDSRFSYDAFLPVEQPKARLEILTWWKIERLIEDENCNFDKNFIVSYFDERVKATNNQLLKYRYNYFISLLTNDNRYAKQSIDALIAVINTLLPKDKEDYPHVAEKAIEVLMSLIKRVKYKIPEATDLIWGVLESDYGYRTKMVCIRLAKEKGFFPSRDAKKIVCLCKDLLSLVKDSWRENCCELGLFYSSKIQGEAKPYMNFFYEALGDMEMGQLVDPATAPNNIAIPWMNEDHSQKAMAFYQKAGLTQKRNRAELAFRENKKKMVMLHFKIEKKTDKKIVEYFGNLEKELLEGKLSWLLENLSCPVRFLFPSYEQIRLRMSASKSTVEKLGFENKIMDINGNSKDAGKDFDLRQKYGIWLMNIVRNTVINMILTAVNIKQLTYSKLRKWFLKNTCFGIQLEYTRSGQVVTTTWFSQIDYGVEALIKQYNRFLQGKPTDWRLPVDILSIRFEGILRDMVGDYGGCVTKVGRDNSISQALLDDLLREPCLLQIFRKEDIEFFEYVFTAKGYNIRNYVAHAFYIPQDYGMIEATLVFLCILRLTMFSPKSKTITANEGHHHHHH”, the “soluble on expression in E. coli” value was “not soluble”. Under “MSLATMQDVATLAGVAPMTVSNCYRVPDKVHPQTLARVLEAAAKLGYTRNRIAGNLASGRSQVVGVLVPSLENSNFIGMIQGLEDRLHQLDHQLMLAVTPTADRELDSIRTFIERRIDGVVLTDVQHSRDTVDLLRNARLPTVETWSLKGPFIDMGVGFSLYDAAFDMTNLMIEAGYRRIGFAGFTPASTERFLERQRGFEDALRRANLRHDVHAYTEQSEGFAGGRITLNALLREEPELDGVFCGTDILAAGMIFECMRRGWRVPGRIGIAGYGNYQIASEITPKLTTVATPGYEMGVAAAEMLVGRLVGAAPAPVIRDVGYRLISGASEGHHHHHH” stands “not soluble”. The entry for “MSLATSAFCAISSAALADGGQTKLPLLELPGIEDRDYWVPGEVNVEGKLEAMQAVVGAKAVPFAGTQAEPIQIAMIYPSADTSDFWARNYIAMTKRLEELGIQFETTEFASRQIEHSLQSTYANQVVQDADLYDFVIFGPSELAIQADNIDKMAASEGFSTFVWAFHTPLKDLKNQPDGWFDFSSAAGALTMCDYMLGRLGNDVTMAMNRGIPGITDDQRSGDFKACVEEKGNWTTIYEHYGEYQREGGFEGTSLILQAYPEATVIHNANTAMAMGSVEAQISVGKEKEVFSTGWGGTGLELDAIRRGELDATPMRMGDDVGAATAEAIKAHLEGRSDELPFVFLGRITVAHDQMSAEEIDALEAEAFRFSGVGALEREGHHHHHH” is “soluble”; for “MSLATYFMYPSTGGLNTYIAVLKKTLEAQGYTVDVLARKPGPRLHLLSEEINMNTLRKMMSKPLNHYYKKHGQFSEPYIIKQELDRYVFELSSALLPIETYDLIHAQDVVSTRALARVKPAHIPLVTTIHGLYSEERFNRGVIQTKNDHSWKYSLAQEYIGALSADKVIVLTNWMRQRFQDQLNISSHHFETIPNGMFIEEFTNKLTNKTQVHIPESKKFTILCPARLVAEKDHRTLIDAVQLLKKEREDFICLLAGDGELREELEGYCREKEVQDVCLFLGNRNDIPELMNRSDLVVLPSLQENLPFTVMEAQVAGKPLIVSNAGGLPEMVHDGVTGRLFKKRDSRQLAFILKELMDHDEDRQLLGNNAKDWGRSQWSANTFCEKIKTVYAEALEQKKKEPRLMEFESVNRPTYHTLELHRFFEKSLWKKIDQCLPSNYTIPDPAFIKSLTTYEGHHHHHH” it is “not soluble”. Under “MSLAYKGYLIDLDGTIYKGKSRIPAGERFIERLQEKGIPYMLVTNNTTRTPESVQEMLRGFNVETPLETIYTATMATVDYMNDMNRGKTAYVIGEEGLKKAIADAGYVEDTKNPAYVVVGLDWNVTYDKLATATLAIQNGALFIGTNPDLNIPTERGLLPGAGSLNALLEAATRIKPVFIGKPNAIIMNKALEILNIPRNQAVMVGDNYLTDIMAGINNDIDTLLVTTGFTTVEEVPDLPIQPSYVLASLDEWTFNEGHHHHHH” stands “soluble”.

For the sequence “MSLDCSIKMLKDVPVKMRDGITIYTDIYLPITEEKVPTLIAWSPYGKSAGTAPRYKNLFNMLGMGNAWNSGLTKFEAPDPAYWCAHGYAVCNPDMRGIAHSEGNTTMIGSQEAEDGYDLIEWLAKQSWSNGKTALTGTSYLAFSQWYIAAEQPPHLTCINPTEGLADGYRDLAFIGGIPDPNFIERLQINHVSAKNSQREDLTKEMEAYPLADSAIWKDKVADPSKITIPAFVIASYSNTLHTMGTFRSWRSLGSKEKWLRIHDRQEWPYYYDENNVEELRRFFDYYLLGKENNWTDTPTVRYALIDFQGGNQTDLPSEVFPPTNSENKRYYMNGLLRTLQETPTSDDFKVSYTTENLPGRASFQMTFDKETHFVGYPKAKLFMEVDGYDDLDVFVWLQKLDKFGNVLSEFVVPNHGAALQDFTQEGASALRYKGAWGRLRASMRQLDSQVSTDEIPAYSFDKVEKLSSGEIVELDIILSPIGLTYKAGETLRVVVSSKDELGSVMPGTPGCTPNNKGMHILHTSKEHPSYIQLPIINKEGHHHHHH”, the “soluble on expression in E. coli” value was “soluble”. Turning to “MSLDDFCNIPKGKEVVFGFNVPQSGAYADEGMDELKAYQLAVKHLNGEGDGGMLKTMKPLALKGNGVLGKKVTFVSGDTQTKADQARATAKRMIEKDGAIMITGGSSSAEAVAVQSLCQDVGVIFMAGLTHSNDTTGKDKRAYGFRHFFNAYMSGVALGPVLAEAYGKDRAAYHLTADYTWGWTQEESMKDATEKQGWKTVKAVRTPLGAADFSQYITPVLNSGADVLILNHYGKDMINSLTQAVQFGLRDKMANGKKFEIVVPLFSELMAQGAGDAIKGIYGTANWDWKLEDAATSAFTKSFGAAYGTPPSQAAQTCYVQAILYADAVERAGTFNPSKVIAALEGFEFDGLGNGKTLYRAADHQCFKDVLVVQGKEKPKEGHHHHHH”, the “soluble on expression in E. coli” value was “not soluble”. Under “MSLDDGTGLFTIGQLARRTGLSVRTIRYWSDEGALPPVTRSSGGYRLYDAGSVARLELIRTLRELGLGLDDVREVLAGETTVAEVAATHVTALDAQIRALKVTRAVLSTVARRGSTAEEMTLMNKLARLSAAERRRILEEFADEMFRGLDTADPVIRERMRNTAVDLPDEPTPEQVDAWVELVELLQDPEFRAQMRAAAEFNAADRGHDSPAGASLWFVRRLVQLAADARQRGEGHHHHHH” stands “not soluble”; under “MSLDDYGIPQVAEINEQISVVWKDYGISPAPEAQDFEWVRRVYLDIIGRVPSVAELEEFQRDRGKDRKKNLVEKLLNDSAFTEEYARNWTTIWTNVLIGRNGGLDNNSQVSREGMQKYLRDSFARNKPYDQLVREVITSEGANAPGMPNFNGAVNFYMDKLAEDGVQATAKTAQIFLGVQVQCTQCHNHPFNSWKQDKFWELNAFFRQTRAQRDRGMEANEGHHHHHH”, “not soluble”; under “MSLDEIAVPILSIITLSSYQPDTIALVDDFSSVSYRNAIIHIETVSEQIASCVANSLTKRVMAYFAGSAEMVLAILGAQLSGAAYIPIEPKTPGSRIDAIADVAKPCMIMTDSQNRQGAQSIAERLGIPLVVLSLKKAGKTLDIFREGYREQPFTVERLTSSTPAVVFFTSGSTGTPKGVELSHLGYYRWFEGVQDLIQVKRGDRVALTTNHSFDLSLGELYLGLMSGATLYVPRQSTVRDPLSLVPWLDQHEITVFQSVPSLMRRILLFRESAGQGLETVRTIMFCGEPLEQQLVKKVKDSFPFSHTRILNLYGPVEASVQVTYCWAEEYLGSEDVIIPLGKPLKHVVVRLAEVDDTSHELQITGDHLALRYLDEKKTRESFINDEAEGTRFYRTGDLGRLNARGDLEYHGRVDDQVKINGYRIELGEIEKTIIDHFKATDCCVLIEKSEGEPSLVAFVVSPNDSVADLRRAVADHLPTYMIPRTVIFIESIPLNTNGKRDKPSLRAEYLKEGHHHHHH”, “not soluble”. The entry for “MSLDEPTDGTGAGTSATEMLDSLEVKGRAPKTGYKRTQFGKAWADVDHNGCDTRNDILNRDLTGVRHKWRTHNCVVKSGKLHDPYTGKDIKFKKGKKTSTAVQIDHVVALSDAWQKGAQKLSEERRTALANDPYNLMAVQGRANQKKSDGDAATWMPSNKGFRCEYVARQIGVKHKYSLWVTQAEKEAMAKVLSSCPTQTVPDYTGVKDSTAEKTTESEQTEQTQTEQSAEQAQQTQQTTQAPAPEPAPAPAPAPQPAPQQDVYYQNCTAARAAGAAPIYQGQPGYRSQLDRDHDGVACEEGHHHHHH” is “soluble”.
